# Test results reported in patent publication US20130149320A1 (CENTRE NATIONAL DE LA RECHERCHE SCIENTIFIQUE, published 2013).
# Ends that are not written are not given here.
# Molecular target: T1, Asf1 from Xenopus laevis (endogenous, high speed egg extract) (Xenopus laevis, UniProt Q69DB9 1-201, limits assumed)
# T1 construct: also called Asf1 from X. laevis
# Assay: GST pull-down on Xenopus egg extract (HSE), Western blot
# Protocol: FIG. 22. Inhibition of chromatin assembly with the B-domain of HIRA. FIG. 22A Binding of the wild-type but not the mutated form (I461D) of the B-domain of HIRA to Asf1. GST pull-down was performed on HSE extracts with […] of recombinant GST B-domain of HIRA proteins on beads. Input and flowthrough are 10% of the immunoprecipitated material. […] FIG. 22B The B-domain of HIRA inhibits nucleosome assembly independent of replication. In vitro nucleosome assembly reactions independent of DNA synthesis were performed with increasing amounts (2, 4 or 8 mg) of the recombinant GST HIRA B-domain or its mutated form (I461D) added directly into the nucleosome assembly reaction mix. The purified plasmid DNA was analyzed by agarose elecrophoresis and was visualized by staining with ethidium bromide (EtBr). The migration positions of DNA plasmid form 1 (supercoiled), form 11 (nicked circular) and lr (closed circular) are indicated.
# GST pull-downs were performed by mixing […] of High speed xenopus egg extract (HSE prepared as described in (Almouzni, 1998)), 1X nucleosome assembly buffer, 300 ng p^{bluescript}, 4 mM ATP, […] creatine kinase and 3 mg of recombinant protein on beads during 3 h at 23° C. The flow through was recovered and beads were washed 3 times with PBS supplemented with 150 mM NaCl and 0,5% NP40. Different fractions were loaded on a NuPAGE 4-12% (Invitrogen) and ran in MES buffer. […]
# T1 sequence (Q69DB9 whole entry): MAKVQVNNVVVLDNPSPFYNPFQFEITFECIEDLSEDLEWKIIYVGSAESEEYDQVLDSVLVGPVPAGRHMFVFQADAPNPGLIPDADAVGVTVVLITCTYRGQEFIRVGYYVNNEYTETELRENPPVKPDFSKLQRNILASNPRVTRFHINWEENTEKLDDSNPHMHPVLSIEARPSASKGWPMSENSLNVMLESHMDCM
binder,measurement,value
"GESLEDIRKNLLKKQVETRTADGRRRDTPLCIAQLDTGDFSTAFFN (other, not shown: a dimerising Fc or GST; small tags and cut ends, also: GST fusion tag, sequence not given here, also called mutated GST-B-domain I461D; mutated form (I461D) of the B-domain of HIRA) [recombinant GST HIRA B-domain I461D (mutated Xenopus laevis HIRA B-domain, aa 435-480)]",binding result,no binding (tested: 3 mg of recombinant protein on beads)
